Measured values: PMC5670239, “Structural basis for mutually exclusive co-transcriptional nuclear cap-binding complexes with either NELF-E or ARS2” (Nature Communications, 2017)

Tests used:
[1] = target: T1, CBC (Homo sapiens, UniProt P52298); assay: ITC, binding to CBC without cap analogue; settings: ITC (MicroCal ITC200), 25 °C, 20 mM HEPES, 120 mM NaCl, 2 mM TCEP, pH 7.8, single-site fit; no cap analogue pre-bound; mean ± SD of at least two independent experiments; SD
T1 sequence (P52298 1-156): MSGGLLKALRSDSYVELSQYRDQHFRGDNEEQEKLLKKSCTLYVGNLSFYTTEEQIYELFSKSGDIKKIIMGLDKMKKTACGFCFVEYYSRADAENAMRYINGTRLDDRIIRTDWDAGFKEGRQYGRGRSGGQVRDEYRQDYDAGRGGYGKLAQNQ
T1 sequence (Q09161 20-790 partner): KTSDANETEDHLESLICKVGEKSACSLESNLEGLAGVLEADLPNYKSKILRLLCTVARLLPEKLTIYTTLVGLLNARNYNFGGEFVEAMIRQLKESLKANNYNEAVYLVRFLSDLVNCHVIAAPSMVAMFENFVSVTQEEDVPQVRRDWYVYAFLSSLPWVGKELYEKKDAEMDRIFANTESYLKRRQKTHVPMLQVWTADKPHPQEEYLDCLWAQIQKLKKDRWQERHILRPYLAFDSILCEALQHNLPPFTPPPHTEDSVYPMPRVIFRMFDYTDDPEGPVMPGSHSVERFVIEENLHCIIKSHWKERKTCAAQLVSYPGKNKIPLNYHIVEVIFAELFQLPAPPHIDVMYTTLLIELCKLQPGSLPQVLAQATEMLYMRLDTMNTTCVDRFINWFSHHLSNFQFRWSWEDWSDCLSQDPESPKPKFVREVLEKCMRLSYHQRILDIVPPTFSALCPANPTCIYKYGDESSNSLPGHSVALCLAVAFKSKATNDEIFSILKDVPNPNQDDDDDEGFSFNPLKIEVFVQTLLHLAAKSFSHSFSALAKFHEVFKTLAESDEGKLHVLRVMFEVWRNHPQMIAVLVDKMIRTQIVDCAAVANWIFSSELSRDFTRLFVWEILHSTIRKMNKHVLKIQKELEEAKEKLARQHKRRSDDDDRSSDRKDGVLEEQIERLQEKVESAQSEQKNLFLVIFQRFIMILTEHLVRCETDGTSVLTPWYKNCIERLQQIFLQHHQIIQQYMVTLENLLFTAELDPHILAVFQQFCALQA
Excerpt: hARS2 isoform-4 (871 residues, UniProt:Q9BXP5-4, also known as isoform-e, NP_001122326) constructs (residues 147–871, 147–845, 763–871, 763–845, 827–871) hNELF-E (NM_002904.5) (244–380, 244–360) and hPHAX (NM_032177.3) (1–394, 103–294, 103–308, 103–327) were cloned into pETM11 (EMBL). Full-length hNELF-E (1–380) was cloned into pFASTBac and CBP20 into pETM30. Primers used are given in Supplementary Table 2. All constructs were expressed in E. coli Rosetta 2 (Novagen), except full-length NELF-E and CBP80ΔNLS (CBP80 with residues 1–19 deleted[2]), which were expressed in High Five insect cells (Life Technology). Cells were harvested and lysed by sonication in lysis buffer containing 50 mM HEPES, pH 7.8, 300 mM NaCl, 10% (v/v) glycerol, 5 mM β-mercaptoethanol. Lysates were clarified by centrifugation and applied on an equilibrated Ni-sepharose column (GE Healthcare), washed with 20 mM imidazole in lysis buffer, and eluted with 300 mM imidazole in lysis buffer. While dialysing into 20 mM HEPES, pH 7.8, 120 mM NaCl, 10% (v/v) glycerol, 5 mM β-mercaptoethanol, the N-terminal 6-histidine-tag was cleaved with His-tagged Tobacco Etch Virus (TEV) protease overnight in a ratio 1:100 mg TEV per mg protein. The cleaved protein was further purified first on Ni-sepharose to remove TEV and then using an anion exchange column (HiTrap Q, GE Healthcare) followed if necessary by a Heparin column (GE Healthcare). In both cases a NaCl gradient from 50 to 800 mM in 20 mM HEPES 7.8, 0.5 mM tris(2-carboxyethyl)phosphine was used. To reconstitute the CBC heterodimer, cleared His-tagged CBP20 lysate was first immobilised on a Ni-sepharose column. After washing the column with lysis buffer, the cleared CBP80 lysate was applied to the column and further purification steps performed as described above. To remove the access of CBP20 the flow through of the Ni-column after TEV cleavage was loaded on an anion exchange column (HiTrap Q, GE Healthcare) and CBC eluted by a NaCl gradient as described above. In the text we refer to CBP80ΔNLS and CBP80ΔNLS-CBP20 as CBP80 and CBC, respectively. ARS2^845–871, NELF-E^354–380, and NELF-E^360–380 peptides, with or without FAM label at the N-terminus, were purchased from GenScript.

[2] = target: T2, m^7GTP-CBC (Homo sapiens, UniProt P52298+Q09161); assay: Fluorescence polarisation with FAM-labelled C-terminal peptides; type: binding; settings: competition, 40 nM FAM peptide, 25 µM m^7GTP, 25 °C, n = 3
T2 construct: 6-histidine tag (pETM30 vector) (N, cleaved yes); made in house; host or cells: CBP20 in E. coli Rosetta 2; CBP80ΔNLS in High Five insect cells; heterodimer reconstituted on Ni-sepharose
T2 sequence (Q09161 20-790): T1 sequence (Q09161 20-790 partner)
T2 sequence (P52298 1-156): T1 sequence (P52298 1-156)
Method: (§1) Fig. 4 Incompatibility of ARS2-PHAX and NELF-E binding to CBC. a, b Competition on m^7GTP-sepharose. a In separate experiments, different amounts of ARS2^147–871 were added to preformed CBC–NELF–E complex immobilised on m^7GTP-sepharose. […] The fluorophore FAM is represented with a star. Note that different constructs of NELF-E and ARS2 were used in c, d, and e compared to f, g, and h and are therefore represented by slightly different shapes. Error bars show the SD of three experiments
Fluorescence anisotropy binding assays were performed with N-terminal FAM-labelled ARS2^845–871 and […] peptides. 40 nM peptides were titrated with increasing concentrations of proteins in 20 mM HEPES, pH 7.8, 120 mM NaCl, 2 mM tris(2-carboxyethyl)phosphine. For the competition assay CBC–ARS2 and CBC–NELF–E complexes were preformed in the presence of 25 µM m^7GTP using 40 nM ARS2^827–871(FAM) peptide together with 60 nM CBC and 40 nM NELF-E^354–380(FAM) peptide with 1 µM CBC. […] To observe a change in polarisation at reasonable protein concentrations, CBC and NELF-E^244–380 concentrations that saturate half of the FAM-labelled peptides were used to preform the individual complexes. Fluorescence polarisation was measured at 25 °C with a microplate reader (CLARIOstar BMG LABTECH) using an excitation wavelength of 495 nm and emission wavelength of 515 nm. For analysis the polarisation value for the peptide alone was subtracted from the measurements.

[3] = target: T1, CBC; assay: Size exclusion chromatography (gel filtration) co-elution with CBC, without m^7GTP; type: binding; settings: fractions analysed by SDS-PAGE, absence of m^7GTP
Method: (§2) Fig. 1 The interaction of CBC with ARS2 is enhanced in the presence of m^7GTP. a Schematic diagram of the domain structure of ARS2 based on ref. [26]. b Gel filtration chromatogram and Coomassie-stained SDS-PAGE of CBC-ARS2 in the presence and absence of m^7GTP. Purified recombinant CBC and ARS2^147–871 were mixed with (orange) or without (blue) 500 µM m^7GTP and subjected to gel filtration. Their elution profiles were overlaid (left) and single fractions analysed by SDS-PAGE (middle and right). Purified recombinant CBC and C-terminally truncated ARS2^147–845 were mixed with 500 µM m^7GTP and analysed in a similar way (bottom left). c ITC data and curve fit to derive the affinity of different ARS2 constructs for CBC. CBC or m^7GTP-CBC in the sample cell was titrated by ARS2. […] K D values and standard deviation represent the average from at least two independent experiments. d Sequence alignment of the C-terminus of ARS2. Conserved residues are highlighted in red. Figure made with ESPript[54]
Fig. 2 The interaction of CBC with NELF-E is enhanced in the presence of m^7GTP. a Schematic diagram of the domain structure of NELF-E. b Gel filtration chromatogram and Coomassie-stained SDS-PAGE of CBC-NELF-E in the presence and absence of m^7GTP. […] Their elution profiles were overlaid (left) and single fractions analysed by SDS-PAGE (middle and right). […]

[4] = target: T1, CBC; assay: Size exclusion chromatography (gel filtration) co-elution with CBC, with m^7GTP; type: binding; settings: gel filtration with 500 µM m^7GTP, fractions analysed by SDS-PAGE
Method: as §2
Fig. 2 The interaction of CBC with NELF-E is enhanced in the presence of m^7GTP. a Schematic diagram of the domain structure of NELF-E. b Gel filtration chromatogram and Coomassie-stained SDS-PAGE of CBC-NELF-E in the presence and absence of m^7GTP. Purified recombinant CBC and NELF-E were mixed with (orange) or without (green) 500 µM m^7GTP and subjected to gel filtration. Their elution profiles were overlaid (left) and single fractions analysed by SDS-PAGE (middle and right). Purified recombinant CBC and NELF-E^244–360 were mixed together with 500 µM m^7GTP and similarly analysed (bottom left). c ITC data and curve fit to derive the affinity of different NELF-E constructs for CBC. CBC or m^7GTP-CBC in the sample cell was titrated by NELF-E^244–380 or NELF-E^360–380. The data were presented as described in the caption to Fig. 1c. d Sequence alignment of the C-terminus of NELF-E. Conserved residues are highlighted in red. Figure made with ESPript[54]

[5] = test system: CBC–NELF–E complex immobilised on m^7GTP-sepharose; assay: Displacement pull down on m^7GTP-sepharose, CBC–NELF–E; type: binding, human; settings: increasing amounts added, 1 h at 4 °C, flow through and elution by SDS-PAGE
Method: as §1
CBC-NELF-E^1–380 or CBC-PHAX^1–394 were immobilised on m^7GTP-sepharose and incubated for 1 h at 4 °C with different amounts of ARS2^147–871 or NELF-E^1–380 in 20 mM HEPES, pH 7.8, 120 mM NaCl, 2 mM tris(2-carboxyethyl)phosphine, respectively. The flow through, as well as the elution from the beads after extensive washing, was analysed by SDS-PAGE followed by Coomassie staining.

B1: PHAX 103–327: human PHAX residues 103–327, includes the full PHAX RBD (protein, UniProt Q9H814 103-327, looked up, fragment)
chain: SQKPPVAGGKKINNIWGAVLQEQNQDAVATELGILGMEGTIDRSRQSETYNYLLAKKLRKESQEHTKDLDKELDEYMHGGKKMGSKEEENGQGHLKRKRPVKDRLGNRPEMNYKGRYEITAEDSQEKVADEISFRLQEPKKDLIARVVRIIGNKKAIELLMETAEVEQNGGLFIMNGSRRRTPGGVFLNLLKNTPSISEEQIKDIFYIENQKEYENKKAARKRRT
Question: With B1 as the molecule, how does the Kd [1] read?
Answer: 350 ± 71 nM

Question: What about the “Change of polarisation on titration to m^7GTP-CBC-ARS2^845–871(FAM)” value ([2]; 60 nM CBC) of the same molecule?
Answer: did not affect the polarisation

Question: And the “Change of polarisation on titration to m^7GTP-CBC-NELF-E^354–380(FAM)” value ([2]; 1 µM CBC)?
Answer: did not change the polarisation

B2: PHAX 120–308: human PHAX residues 120–308 (protein, UniProt Q9H814 120-308, looked up, fragment)
chain: AVLQEQNQDAVATELGILGMEGTIDRSRQSETYNYLLAKKLRKESQEHTKDLDKELDEYMHGGKKMGSKEEENGQGHLKRKRPVKDRLGNRPEMNYKGRYEITAEDSQEKVADEISFRLQEPKKDLIARVVRIIGNKKAIELLMETAEVEQNGGLFIMNGSRRRTPGGVFLNLLKNTPSISEEQIKDIF
Question: B2 was tested. Which “Interaction with CBC by SEC” value [3] did it give?
Answer: No interaction via SEC

B3: PHAX 103–264: human PHAX residues 103–264 (protein, UniProt Q9H814 103-264, looked up, fragment)
chain: SQKPPVAGGKKINNIWGAVLQEQNQDAVATELGILGMEGTIDRSRQSETYNYLLAKKLRKESQEHTKDLDKELDEYMHGGKKMGSKEEENGQGHLKRKRPVKDRLGNRPEMNYKGRYEITAEDSQEKVADEISFRLQEPKKDLIARVVRIIGNKKAIELLME
Question: With B3 as the molecule, how does the “Interaction with CBC by SEC” value [3] read?
Answer: No interaction via SEC

B4: ARS2^147–871: human ARS2 lacking the putatively unstructured N-terminal region (protein, UniProt Q9BXP5 147-871, looked up, fragment)
chain: PVMKTFKEFLLSLDDSVDETEAVKRYNDYKLDFRRQQMQDFFLAHKDEEWFRSKYHPDEVGKRRQEARGALQNRLRVFLSLMETGWFDNLLLDIDKADAIVKMLDAAVIKMEGGTENDLRILEQEEEEEQAGKPGEPSKKEEGRAGAGLGDGERKTNDKDEKKEDGKQAENDSSNDDKTKKSEGDGDKEEKKEDSEKEAKKSSKKRNRKHSGDDSFDEGSVSESESESESGQAEEEKEEAEEALKEKEKPKEEEWEKPKDAAGLECKPRPLHKTCSLFMRNIAPNISRAEIISLCKRYPGFMRVALSEPQPERRFFRRGWVTFDRSVNIKEICWNLQNIRLRECELSPGVNRDLTRRVRNINGITQHKQIVRNDIKLAAKLIHTLDDRTQLWASEPGTPPLPTSLPSQNPILKNITDYLIEEVSAEEEELLGSSGGAPPEEPPKEGNPAEINVERDEKLIKVLDKLLLYLRIVHSLDYYNTCEYPNEDEMPNRCGIIHVRGPMPPNRISHGEVLEWQKTFEEKLTPLLSVRESLSEEEAQKMGRKDPEQEVEKFVTSNTQELGKDKWLCPLSGKKFKGPEFVRKHIFNKHAEKIEEVKKEVAFFNNFLTDAKRPALPEIKPAQPPGPAQILPPGLTPGLPYPHQTPQGLMPYGQPRPPILGYGAGAVRPAVPTGGPPYPHAPYGAGRGNYDAFRGQGGYPGKPRNRMVRGDPRAIVEYRDLDAPD
Question: Which “Interaction with CBC by SEC in the presence of m^7GTP” value [4] does the source give for B4 here?
Answer: only co-eluted in the presence of the cap analogue m^7GTP

Question: What about the “Displacement of NELF-E from immobilised m^7GTP–CBC–NELF–E complex” value [5] of the same molecule?
Answer: could displace NELF-E
